# Data: US20230227527A1 (published 2023)
# Substitutions are numbered along the chain they refer to.
# B1: L208 (TCR, V domains shown)
# Valpha: KQEVTQIPAALSVPEGENLVLNCSFTDSAIYNLQWFRQDPGKGLTSLLLIQSSQREQTSGRLNASLDKSSGRSTLYIAASQPGDSATYLCAVLMDSNYQLIWGAGTKLIIKP
# Vbeta: DAGITQSPRYKITETGRQVTLMCHQTWSHSYMFWYRQDLGHGLRLIYYSAAADITDKGEVPDGYVVSRSKTENFPLTLESATRSQTSVYFCASSEDGMNTEAFFGQGTRLTVV
# B2: L11-3 (protein)
# chain 1: GQQVMQIPQYQHVQEGEDFTTYCNSSTTLSNIQWYKQRPGGHPVFLIQLVKSGEVKKQKRLTFQFGEAKKNSSLHITATQTTDVGTYFCADPDGLIFGQGTELSVKP
# chain 2: DAGVIQSPRHEVTEMGQEVTLRCKPISGHNSLFWYRQTMMRGLELLIYFNNNVPIDDSGMPEDRFSAKMPNASFSTLKIQPSEPRDSAVYFCASSLGAGAGYGYTFGSGTRLTVV
# B3: L11-6 (protein)
# chain 1: GIQVEQSPPDLILQEGANSTLRCNFSDSVNNLQWFHQNPWGQLINLFYIPSGTKQNGRLSATTVATERYSLLYISSSQTTDSGVYFCAVDGGNKLVFGAGTILRVKS
# chain 2: B2 chain 2 with A100S, Y102W, G103E, Y104Q, T105Y, S108P, V115T
# Experiments:
# [1] = biological target: T1, peptide on HLA-A*02:01 (human); experiment: intracellular IFN-gamma; peptide titration on APCs, E:T 1:1, overnight; a different experiment, FIG. 6G; full-length, on cells
# T1 peptide: SLGGLLTMV
# [2] = biological target: T2, EBV LMP2 peptide on HLA-A*02:01 (human); experiment: as above
# T2 peptide: CLGGLLTMV
# [3] = biological target: T1, peptide on HLA-A*02:01; experiment: intracellular IFN-gamma; peptide titration on APCs, E:T 1:1, overnight; FIG. 6F; full-length, on cells
# [4] = biological target: T2, EBV LMP2 peptide on HLA-A*02:01; experiment: as above
# [5] = biological target: EBV LMP2 peptide on HLA-A11 (human); experiment: intracellular IFN-gamma; peptide titration on K562-A11, E:T 1:1, overnight; FIG. 9; full-length, on cells; settings: chains Valpha:Vbeta
Binder,EC50 of peptide [1] [µg/mL],EC50 of peptide [2] [µg/mL],EC50 of peptide [3] [µg/mL],EC50 of peptide [4] [µg/mL],EC50 of peptide [5] [nM]
B1,0.125,0.261,0.0183,0.0392,–
B2,–,–,–,–,0.3
B3,–,–,–,–,2
